Source: PMC8867573
Substitutions are numbered along the chain they refer to. Numbers in names are those of the source.

B1: ScSLAC (small laccase, SLAC) (Streptomyces coelicolor A3(2); M298L) (protein)
chain: AKGITARTAPAGGEVRHLKMYAEKLADGQMGYGFEKGKASVPGPLIEVNEGDTLHIEFTNTMDVRASLHVHGLDYEISSDGTAMNKSDVEPGGTRTYTWRTHKPGRRDDGTWRPGSAGYWHYHDHVVGTEHGTGGIRNGLYGPVIVRRKGDVLPDATHTIVFNDMTINNRKPHTGPDFEATVGDRVEIVMITHGEYYHTFHMHGHRWADNRTGILTGPDDPSRVIDNKITGPADSFGFQIIAGEGVGAGAWMYHCHVQSHSDMGLVGLFLVKKPDGTIPGYEPHEHGGATAKSGESGEPTGGAAAHEHEH
B2: ScSLAC (small laccase, SLAC) (Streptomyces coelicolor A3(2); M198F/M298F) (protein)
chain: B1 chain with M165F, L265F
B3: ScSLAC (small laccase, SLAC) (Streptomyces coelicolor A3(2)) (protein)
chain: B1 chain with L265M
B4: ScSLAC (small laccase, SLAC) (Streptomyces coelicolor A3(2); M298F) (protein)
chain: B1 chain with L265F

substrate: CCn1c(=NN=c2sc3cc(S(=O)(=O)O)ccc3n2CC)sc2cc(S(=O)(=O)O)ccc21; experiment: purified protein; settings: pH 5.0, 42 °C, 0.1-25 mM substrate

Compared with B1, B2 is 4.5-fold lower in Km: 5000 ± 220 µM for the first, 1100 ± 40 µM for the second.

Going from B3 to B4, the Km falls from 7300 ± 260 µM to 4100 ± 240 µM (1.8-fold).

Compared with B1, B2 is 2.4-fold lower in kcat: 9.3 s⁻¹ for the first, 3.9 s⁻¹ for the second.

Going from B3 to B4, the kcat falls from 38.6 s⁻¹ to 3.7 s⁻¹ (10-fold).

substrate: COc1cc(-c2cc(OC)c(O)c(OC)c2)cc(OC)c1O; experiment: purified protein; type: biochemical, Streptomyces coelicolor; settings: pH 8.5, 42 °C, 0.025-2 mM substrate

Compared with B2, B3 is 3-fold higher in Km: 100 ± 20 µM for the first, 300 ± 50 µM for the second.

In the case of B4, the Km is reported as 300 ± 50 µM.

B2 and B4 are within 1.5-fold of each other in kcat: 5.6 s⁻¹ for the first, 5.4 s⁻¹ for the second.

B2 was tested, and the kcat/Km was “kcat/Km = 5.6 × 10^4 s^–1 M^–1”.
In the case of B3, the kcat/Km is reported as “kcat/Km = 3.8 × 10^4 s^–1 M^–1”.
With B4 the kcat/Km was “kcat/Km = 1.8 × 10^4 s^–1 M^–1”.

With B3 the kcat was “kcat = 11.3 s^–1”.

substrate: COc1cccc(OC)c1O; experiment: purified protein; type: biochemical, Streptomyces coelicolor; settings: pH 8.0, 42 °C, 0.25-15 mM substrate

B1 and B2 are within 1.5-fold of each other in Km: 1300 ± 90 µM for the first, 1100 ± 80 µM for the second.

With B4 the Km was 1200 ± 190 µM.

Compared with B1, B2 is 1.9-fold lower in kcat: 1.5 s⁻¹ for the first, 0.8 s⁻¹ for the second.

B4 showed a kcat of 0.7 s⁻¹.

In the case of B1, the kcat/Km is reported as “kcat/Km = 1.2 × 10^3 s^–1 M^–1”.
B2 was tested, and the kcat/Km was “kcat/Km = 0.7 × 10^3 s^–1 M^–1”.
With B4 the kcat/Km was “kcat/Km = 0.6 × 10^3 s^–1 M^–1”.
